Measurements taken from IntAct's records for PubMed 29039417.

B1: Protein PTHB1 (Homo sapiens), Q3SYG4 (parent)
chain: MSLFKARDWWSTILGDKEEFDQGCLCLANVDNSGNGQDKIIVGSFMGYLRIFSPHPAKTGDGAQAEDLLLEVDLRDPVLQVEVGKFVSGTEMLHLAVLHSRKLCVYSVSGTLGNVEHGNQCQMKLMYEHNLQRTACNMTYGSFGGVKGRDLICIQSMDGMLMVFEQESYAFGRFLPGFLLPGPLAYSSRTDSFLTVSSCQQVESYKYQVLAFATDADKRQETEQQKLGSGKRLVVDWTLNIGEQALDICIVSFNQSASSVFVLGERNFFCLKDNGQIRFMKKLDWSPSCFLPYCSVSEGTINTLIGNHNNMLHIYQDVTLKWATQLPHIPVAVRVGCLHDLKGVIVTLSDDGHLQCSYLGTDPSLFQAPNVQSRELNYDELDVEMKELQKIIKDVNKSQGVWPMTEREDDLNVSVVVSPNFDSVSQATDVEVGTDLVPSVTVKVTLQNRVILQKAKLSVYVQPPLELTCDQFTFEFMTPDLTRTVSFSVYLKRSYTPSELEGNAVVSYSRPTDRNPDGIPRVIQCKFRLPLKLICLPGQPSKTASHKITIDTNKSPVSLLSLFPGFASQSDDDQVNVMGFHFLGGARITVLASKTSQRYRIQSEQFEDLWLITNELILRLQEYFEKQGVKDFACSFSGSIPLQEYFELIDHHFELRINGEKLEELLSERAVQFRAIQRRLLARFKDKTPAPLQHLDTLLDGTYKQVIALADAVEENQGNLFQSFTRLKSATHLVILLIALWQKLSADQVAILEAAFLPLQEDTQELGWEETVDAAISHLLKTCLSKSSKEQALNLNSQLNIPKDTSQLKKHITLLCDRLSKGGRLCLSTDAAAPQTMVMPGGCTTIPESDLEERSVEQDSTELFTNHRHLTAETPRPEVSPLQGVSE
partner: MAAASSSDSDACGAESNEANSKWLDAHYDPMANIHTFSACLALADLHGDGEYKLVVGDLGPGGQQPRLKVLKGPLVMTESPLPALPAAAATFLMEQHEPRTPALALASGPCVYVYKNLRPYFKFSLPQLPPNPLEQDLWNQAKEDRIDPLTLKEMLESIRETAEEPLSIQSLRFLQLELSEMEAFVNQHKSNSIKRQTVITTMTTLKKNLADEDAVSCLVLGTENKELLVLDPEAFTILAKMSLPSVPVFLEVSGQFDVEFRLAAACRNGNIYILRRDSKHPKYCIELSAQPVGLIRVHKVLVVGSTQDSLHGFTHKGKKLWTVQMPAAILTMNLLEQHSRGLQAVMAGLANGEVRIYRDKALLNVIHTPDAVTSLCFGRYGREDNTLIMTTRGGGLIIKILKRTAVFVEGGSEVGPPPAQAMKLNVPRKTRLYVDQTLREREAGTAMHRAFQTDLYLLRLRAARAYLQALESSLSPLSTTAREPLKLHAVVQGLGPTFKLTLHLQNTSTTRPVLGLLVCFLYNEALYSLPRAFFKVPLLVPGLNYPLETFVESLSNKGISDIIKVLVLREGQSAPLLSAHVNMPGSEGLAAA

Variants of: B1
Conditions: with bbs1_human BBS1, Q8NFJ9

Variant | effect of a mutation on the interaction
Q462K | with no effect
R528A | with no effect
N658E | with no effect
F472A | with no effect
I523A | with no effect
V522K | with no effect
K542E | with no effect
S507F | disrupting interaction strength
D422A | with no effect
V444A | with no effect
R619A | with no effect
I612A | with no effect
I519A | with no effect
F632K | with no effect
L662A | with no effect
R656K | with no effect
V671K | with no effect
T496A | with no effect
T478A | with no effect
Q471E | with no effect
S425A | with no effect
V417E | with no effect
L620A | with no effect
E406A | with no effect
L560K | with no effect
S498E | with no effect

Variant | effect of a mutation on the interaction
V413K | with no effect
I657A | with no effect
I657K | with no effect
L536K | with no effect
S541E | with no effect
P520K | with no effect
L500E | with no effect
L533K | with no effect
H546A | with no effect
C469A | with no effect
S635A | with no effect
K626E | with no effect
P463E | with no effect
I649K | with no effect
A504K | with no effect
V450E | with no effect
D513K | with no effect
Q605K | with no effect
Y599E | with no effect
I588E | with no effect
T473K | with no effect
F527K | with no effect
G502A | with no effect
E654G | disrupting interaction strength
F653E | with no effect
Q627A | with no effect

Variant | effect of a mutation on the interaction
V432E | disrupting interaction strength
S458A | with no effect
Y645K | with no effect
R449A | with no effect
T468E | with no effect
L446K | with no effect
V424E | with no effect
R483A | with no effect
T512E | with no effect
P537A | with no effect
D410K | with no effect
D410E | with no effect
S494E | with no effect
V557K | with no effect
G579E | with no effect
L642K | with no effect
E668K | with no effect
S418E | with no effect
S418A | with no effect
D551K | with no effect
A633V | disrupting interaction strength
A544K | with no effect
D470A | with no effect
S545N | disrupting interaction strength
S555E | with no effect
P511A | with no effect

Variant | effect of a mutation on the interaction
N515E | with no effect
E625K | with no effect
V440A | with no effect
S637A | with no effect
F474A | with no effect
P641E | with no effect
P641K | with no effect
F673K | with no effect
L529E | with no effect
L529K | with no effect
I617K | with no effect
S568G | disrupting interaction strength
S568A | with no effect
T543K | with no effect
R598E | with no effect
T445E | with no effect
E607V | disrupting interaction strength
R600K | with no effect
D650K | with no effect
Q643K | with no effect
A670K | with no effect
D429E | with no effect
D429A | with no effect
K456E | with no effect
V442K | with no effect
V442A | with no effect

Now from value to variant:

effect of a mutation on the interaction | Variant
with no effect | A746K
with no effect | A746E
with no effect | C816A
with no effect | T871A
with no effect | F756E
with no effect | A675E
with no effect | A675K
with no effect | S828K
with no effect | D830K
with no effect | D859E
with no effect | N794E
with no effect | N794A
with no effect | N794K
with no effect | L863A
with no effect | L681A
with no effect | G884K
with no effect | Q677K
disrupting interaction strength | Q677Y
with no effect | Q677A
with no effect | T844A
with no effect | M837A
with no effect | A708K
with no effect | Q807K
with no effect | L827E
with no effect | L827K
with no effect | P847K

effect of a mutation on the interaction | Variant
with no effect | P847E
disrupting interaction strength | G718S
with no effect | S886A
with no effect | Y703A
with no effect | S797K
with no effect | G823A
with no effect | L698A
with no effect | L698E
with no effect | L766E
with no effect | L766A
with no effect | S729E
with no effect | R854A
with no effect | S860E
with no effect | E715A
with no effect | E852K
with no effect | T845A
with no effect | A831K
with no effect | L779E
with no effect | P691A
with no effect | P691K
disrupting interaction strength | A690T
with no effect | S785A
with no effect | S806E
with no effect | K743E
with no effect | L752E
with no effect | E769K

effect of a mutation on the interaction | Variant
with no effect | E769A
with no effect | L709A
with no effect | P840E
with no effect | F864K
with no effect | I735A
with no effect | N800E
with no effect | L799A
with no effect | V856A
with no effect | E873A
with no effect | L870A
with no effect | Q835A
with no effect | Q835E
disrupting interaction strength | G701E
with no effect | M839E
with no effect | Q693A
with no effect | E878A
with no effect | R876A
with no effect | W768A
with no effect | A755K
with no effect | D686A
with no effect | D686E
with no effect | F724E
with no effect | A712K
with no effect | F721A
with no effect | L808E
with no effect | H694K
